As usually defined, the IC50 is the concentration that gives 50% inhibition.

This experiment addresses human PD-L1 (human) (UniProt Q9NZQ7). The experiment can be described thus: FACS blocking of human PD-1/PD-L1 binding.

Chain of human PD-L1 (human) (Q9NZQ7 19-290): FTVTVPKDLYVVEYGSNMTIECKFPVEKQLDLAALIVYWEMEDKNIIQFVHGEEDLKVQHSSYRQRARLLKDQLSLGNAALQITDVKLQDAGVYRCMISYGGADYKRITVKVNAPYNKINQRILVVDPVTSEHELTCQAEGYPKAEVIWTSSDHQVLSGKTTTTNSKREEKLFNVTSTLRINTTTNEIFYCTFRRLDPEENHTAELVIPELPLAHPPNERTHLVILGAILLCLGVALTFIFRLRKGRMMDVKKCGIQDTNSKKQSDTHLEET

KN035 gave an IC50 of 0.208 µg/mL.

These data come from patent US20250197503A1, “ANTI-HUMAN PD-Ll AND TLR7 DOUBLE-TARGETING NANOBODY CONJUGATE DRUG AND USE THEREOF IN RESISTING TUMOR” (SHANGHAI INSTITUTE OF MATERIA MEDICA , CHINESE ACADEMY OF …, priority 2022, published 2025).
